The source of these data is patent US20140087995A1 (published 2014).

Numbered stars: 1 amine (or outer) side, 2 acyl side, 3 side chain; on linkers, the order of the positions; unused ones are H or OH. Bridge positions count the residues as written; N and C are the ends. Side chains are listed from the residue outwards. Ends that are not written are not given here. * marks the point of attachment. C20 diacid = O=C(O)CCCCCCCCCCCCCCCCCCC(=O)*; C18 diacid = O=C(O)CCCCCCCCCCCCCCCCC(=O)*; C16 diacid = O=C(O)CCCCCCCCCCCCCCC(=O)*; γGlu = O=C(O)[C@H](CCC(=O)[*:2])N[*:1]

T1: human calcitonin receptor (human, UniProt P30988 25-474)
T1 sequence (looked up): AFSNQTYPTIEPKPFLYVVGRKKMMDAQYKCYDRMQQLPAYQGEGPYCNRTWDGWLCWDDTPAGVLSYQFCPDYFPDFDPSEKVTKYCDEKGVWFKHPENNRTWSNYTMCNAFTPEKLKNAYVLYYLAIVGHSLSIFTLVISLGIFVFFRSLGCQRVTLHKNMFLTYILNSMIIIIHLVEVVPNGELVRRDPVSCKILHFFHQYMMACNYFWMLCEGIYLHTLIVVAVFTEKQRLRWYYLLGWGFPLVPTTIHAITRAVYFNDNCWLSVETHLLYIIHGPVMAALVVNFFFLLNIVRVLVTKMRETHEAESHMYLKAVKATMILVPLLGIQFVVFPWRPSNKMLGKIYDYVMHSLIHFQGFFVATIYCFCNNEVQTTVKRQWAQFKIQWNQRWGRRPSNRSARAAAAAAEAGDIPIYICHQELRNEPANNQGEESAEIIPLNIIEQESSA

B1: N^ε1-[(4S)-4-carboxy-4-(15-carboxypentadecanoylamino)butanoyl]-[Arg17,Pro21,Pro27,His34]-h-amylin (peptide)
peptide: K([γGlu-C16 diacid])CNTATCATQRLANFLRHSSPNFGAIPSSTNVGHNTY-NH2
modifications: disulfide 2-7; N-terminus assumed
SMILES: CC[C@H](C)[C@H](NC(=O)[C@H](C)NC(=O)CNC(=O)[C@H](Cc1ccccc1)NC(=O)[C@H](CC(N)=O)NC(=O)[C@@H]1CCCN1C(=O)[C@H](CO)NC(=O)[C@H](CO)NC(=O)[C@H](Cc1c[nH]cn1)NC(=O)[C@H](CCCNC(=N)N)NC(=O)[C@H](CC(C)C)NC(=O)[C@H](Cc1ccccc1)NC(=O)[C@H](CC(N)=O)NC(=O)[C@H](C)NC(=O)[C@H](CC(C)C)NC(=O)[C@H](CCCNC(=N)N)NC(=O)[C@H](CCC(N)=O)NC(=O)[C@@H](NC(=O)[C@H](C)NC(=O)[C@@H]1CSSC[C@H](NC(=O)[C@@H](N)CCCCNC(=O)CC[C@H](NC(=O)CCCCCCCCCCCCCCC(=O)O)C(=O)O)C(=O)N[C@@H](CC(N)=O)C(=O)N[C@@H]([C@@H](C)O)C(=O)N[C@@H](C)C(=O)N[C@@H]([C@@H](C)O)C(=O)N1)[C@@H](C)O)C(=O)N1CCC[C@H]1C(=O)N[C@@H](CO)C(=O)N[C@@H](CO)C(=O)N[C@H](C(=O)N[C@@H](CC(N)=O)C(=O)N[C@H](C(=O)NCC(=O)N[C@@H](Cc1c[nH]cn1)C(=O)N[C@@H](CC(N)=O)C(=O)N[C@H](C(=O)N[C@@H](Cc1ccc(O)cc1)C(N)=O)[C@@H](C)O)C(C)C)[C@@H](C)O
notes: synthetic peptide amide
B2: N^ε1-[(4S)-4-carboxy-4-(19-carboxynonadecanoylamino)butanoyl]-[Glu14,Arg17,Pro21,Pro27,Arg34,Glu35]-h-amylin (peptide)
peptide: K([γGlu-C20 diacid])CNTATCATQRLAEFLRHSSPNFGAIPSSTNVGRETY-NH2
modifications: disulfide 2-7; N-terminus assumed
SMILES: CC[C@H](C)[C@H](NC(=O)[C@H](C)NC(=O)CNC(=O)[C@H](Cc1ccccc1)NC(=O)[C@H](CC(N)=O)NC(=O)[C@@H]1CCCN1C(=O)[C@H](CO)NC(=O)[C@H](CO)NC(=O)[C@H](Cc1c[nH]cn1)NC(=O)[C@H](CCCNC(=N)N)NC(=O)[C@H](CC(C)C)NC(=O)[C@H](Cc1ccccc1)NC(=O)[C@H](CCC(=O)O)NC(=O)[C@H](C)NC(=O)[C@H](CC(C)C)NC(=O)[C@H](CCCNC(=N)N)NC(=O)[C@H](CCC(N)=O)NC(=O)[C@@H](NC(=O)[C@H](C)NC(=O)[C@@H]1CSSC[C@H](NC(=O)[C@@H](N)CCCCNC(=O)CC[C@H](NC(=O)CCCCCCCCCCCCCCCCCCC(=O)O)C(=O)O)C(=O)N[C@@H](CC(N)=O)C(=O)N[C@@H]([C@@H](C)O)C(=O)N[C@@H](C)C(=O)N[C@@H]([C@@H](C)O)C(=O)N1)[C@@H](C)O)C(=O)N1CCC[C@H]1C(=O)N[C@@H](CO)C(=O)N[C@@H](CO)C(=O)N[C@H](C(=O)N[C@@H](CC(N)=O)C(=O)N[C@H](C(=O)NCC(=O)N[C@@H](CCCNC(=N)N)C(=O)N[C@@H](CCC(=O)O)C(=O)N[C@H](C(=O)N[C@@H](Cc1ccc(O)cc1)C(N)=O)[C@@H](C)O)C(C)C)[C@@H](C)O
notes: synthetic peptide amide
B3: N^ε1-[(4S)-4-carboxy-4-(17-carboxyheptadecanoylamino)butanoyl]-[Arg17,Pro21,Pro27,His34]-h-amylin (peptide)
peptide: K([γGlu-C18 diacid])CNTATCATQRLANFLRHSSPNFGAIPSSTNVGHNTY-NH2
modifications: disulfide 2-7; N-terminus assumed
SMILES: CC[C@H](C)[C@H](NC(=O)[C@H](C)NC(=O)CNC(=O)[C@H](Cc1ccccc1)NC(=O)[C@H](CC(N)=O)NC(=O)[C@@H]1CCCN1C(=O)[C@H](CO)NC(=O)[C@H](CO)NC(=O)[C@H](Cc1c[nH]cn1)NC(=O)[C@H](CCCNC(=N)N)NC(=O)[C@H](CC(C)C)NC(=O)[C@H](Cc1ccccc1)NC(=O)[C@H](CC(N)=O)NC(=O)[C@H](C)NC(=O)[C@H](CC(C)C)NC(=O)[C@H](CCCNC(=N)N)NC(=O)[C@H](CCC(N)=O)NC(=O)[C@@H](NC(=O)[C@H](C)NC(=O)[C@@H]1CSSC[C@H](NC(=O)[C@@H](N)CCCCNC(=O)CC[C@H](NC(=O)CCCCCCCCCCCCCCCCC(=O)O)C(=O)O)C(=O)N[C@@H](CC(N)=O)C(=O)N[C@@H]([C@@H](C)O)C(=O)N[C@@H](C)C(=O)N[C@@H]([C@@H](C)O)C(=O)N1)[C@@H](C)O)C(=O)N1CCC[C@H]1C(=O)N[C@@H](CO)C(=O)N[C@@H](CO)C(=O)N[C@H](C(=O)N[C@@H](CC(N)=O)C(=O)N[C@H](C(=O)NCC(=O)N[C@@H](Cc1c[nH]cn1)C(=O)N[C@@H](CC(N)=O)C(=O)N[C@H](C(=O)N[C@@H](Cc1ccc(O)cc1)C(N)=O)[C@@H](C)O)C(C)C)[C@@H](C)O
notes: synthetic peptide amide
B4: N^ε1-[(4S)-4-carboxy-4-(19-carboxynonadecanoylamino)butanoyl]-[Glu14,Arg17,Pro21,Pro27,His34,Glu35]-h-amylin (peptide)
peptide: K([γGlu-C20 diacid])CNTATCATQRLAEFLRHSSPNFGAIPSSTNVGHETY-NH2
modifications: disulfide 2-7; N-terminus assumed
SMILES: CC[C@H](C)[C@H](NC(=O)[C@H](C)NC(=O)CNC(=O)[C@H](Cc1ccccc1)NC(=O)[C@H](CC(N)=O)NC(=O)[C@@H]1CCCN1C(=O)[C@H](CO)NC(=O)[C@H](CO)NC(=O)[C@H](Cc1c[nH]cn1)NC(=O)[C@H](CCCNC(=N)N)NC(=O)[C@H](CC(C)C)NC(=O)[C@H](Cc1ccccc1)NC(=O)[C@H](CCC(=O)O)NC(=O)[C@H](C)NC(=O)[C@H](CC(C)C)NC(=O)[C@H](CCCNC(=N)N)NC(=O)[C@H](CCC(N)=O)NC(=O)[C@@H](NC(=O)[C@H](C)NC(=O)[C@@H]1CSSC[C@H](NC(=O)[C@@H](N)CCCCNC(=O)CC[C@H](NC(=O)CCCCCCCCCCCCCCCCCCC(=O)O)C(=O)O)C(=O)N[C@@H](CC(N)=O)C(=O)N[C@@H]([C@@H](C)O)C(=O)N[C@@H](C)C(=O)N[C@@H]([C@@H](C)O)C(=O)N1)[C@@H](C)O)C(=O)N1CCC[C@H]1C(=O)N[C@@H](CO)C(=O)N[C@@H](CO)C(=O)N[C@H](C(=O)N[C@@H](CC(N)=O)C(=O)N[C@H](C(=O)NCC(=O)N[C@@H](Cc1c[nH]cn1)C(=O)N[C@@H](CCC(=O)O)C(=O)N[C@H](C(=O)N[C@@H](Cc1ccc(O)cc1)C(N)=O)[C@@H](C)O)C(C)C)[C@@H](C)O
notes: synthetic peptide amide; also called compound 107
B5: N^ε1-[(4S)-4-carboxy-4-(19-carboxynonadecanoylamino)butanoyl]-[Asp14,Arg17,Pro21,Pro27,Pro34,Arg35]-h-amylin (peptide)
peptide: K([γGlu-C20 diacid])CNTATCATQRLADFLRHSSPNFGAIPSSTNVGPRTY-NH2
modifications: disulfide 2-7; N-terminus assumed
SMILES: CC[C@H](C)[C@H](NC(=O)[C@H](C)NC(=O)CNC(=O)[C@H](Cc1ccccc1)NC(=O)[C@H](CC(N)=O)NC(=O)[C@@H]1CCCN1C(=O)[C@H](CO)NC(=O)[C@H](CO)NC(=O)[C@H](Cc1c[nH]cn1)NC(=O)[C@H](CCCNC(=N)N)NC(=O)[C@H](CC(C)C)NC(=O)[C@H](Cc1ccccc1)NC(=O)[C@H](CC(=O)O)NC(=O)[C@H](C)NC(=O)[C@H](CC(C)C)NC(=O)[C@H](CCCNC(=N)N)NC(=O)[C@H](CCC(N)=O)NC(=O)[C@@H](NC(=O)[C@H](C)NC(=O)[C@@H]1CSSC[C@H](NC(=O)[C@@H](N)CCCCNC(=O)CC[C@H](NC(=O)CCCCCCCCCCCCCCCCCCC(=O)O)C(=O)O)C(=O)N[C@@H](CC(N)=O)C(=O)N[C@@H]([C@@H](C)O)C(=O)N[C@@H](C)C(=O)N[C@@H]([C@@H](C)O)C(=O)N1)[C@@H](C)O)C(=O)N1CCC[C@H]1C(=O)N[C@@H](CO)C(=O)N[C@@H](CO)C(=O)N[C@H](C(=O)N[C@@H](CC(N)=O)C(=O)N[C@H](C(=O)NCC(=O)N1CCC[C@H]1C(=O)N[C@@H](CCCNC(=N)N)C(=O)N[C@H](C(=O)N[C@@H](Cc1ccc(O)cc1)C(N)=O)[C@@H](C)O)C(C)C)[C@@H](C)O
notes: synthetic peptide amide

The target in the test is T1, human calcitonin receptor. Briefly: cell-based or functional assay.
Take B1: the “hCTR funct. EC50 (pM)” value amounted to 2210 pM.

As for B2, the “hCTR funct. EC50 (pM)” value was 2740 pM. For the molecule B3, the “hCTR funct. EC50 (pM)” value was found to be 5850 pM. The value for B4 was 2540 pM. Under B5 stands 3640 pM.
